One data set concerns lipase. The experiment in a line: Ru(phen)2dppz fluorescence displacement. The settings on record: no displacement up to 250 µM; aptamer given as variable region, S11b inferred; Ru displacement: 50 nM aptamer in binding solution (composition not given), excitation 434 nm, emission 610 nm; thermal assay: binding solution, 1 h ambient ….
Data set [1] deals with MUC1 variable tandem repeat (VTR) peptide (UniProt P15941). The experiment in a line: Ru(phen)2dppz fluorescence displacement. To be noted: Ru dye; Ru displacement: 50 nM aptamer in binding solution (composition not given), excitation 434 nm, emission 610 nm; thermal assay: binding solution, 1 h ambient ….
MUC1 variable tandem repeat (VTR) peptide, sequence (P15941 whole entry): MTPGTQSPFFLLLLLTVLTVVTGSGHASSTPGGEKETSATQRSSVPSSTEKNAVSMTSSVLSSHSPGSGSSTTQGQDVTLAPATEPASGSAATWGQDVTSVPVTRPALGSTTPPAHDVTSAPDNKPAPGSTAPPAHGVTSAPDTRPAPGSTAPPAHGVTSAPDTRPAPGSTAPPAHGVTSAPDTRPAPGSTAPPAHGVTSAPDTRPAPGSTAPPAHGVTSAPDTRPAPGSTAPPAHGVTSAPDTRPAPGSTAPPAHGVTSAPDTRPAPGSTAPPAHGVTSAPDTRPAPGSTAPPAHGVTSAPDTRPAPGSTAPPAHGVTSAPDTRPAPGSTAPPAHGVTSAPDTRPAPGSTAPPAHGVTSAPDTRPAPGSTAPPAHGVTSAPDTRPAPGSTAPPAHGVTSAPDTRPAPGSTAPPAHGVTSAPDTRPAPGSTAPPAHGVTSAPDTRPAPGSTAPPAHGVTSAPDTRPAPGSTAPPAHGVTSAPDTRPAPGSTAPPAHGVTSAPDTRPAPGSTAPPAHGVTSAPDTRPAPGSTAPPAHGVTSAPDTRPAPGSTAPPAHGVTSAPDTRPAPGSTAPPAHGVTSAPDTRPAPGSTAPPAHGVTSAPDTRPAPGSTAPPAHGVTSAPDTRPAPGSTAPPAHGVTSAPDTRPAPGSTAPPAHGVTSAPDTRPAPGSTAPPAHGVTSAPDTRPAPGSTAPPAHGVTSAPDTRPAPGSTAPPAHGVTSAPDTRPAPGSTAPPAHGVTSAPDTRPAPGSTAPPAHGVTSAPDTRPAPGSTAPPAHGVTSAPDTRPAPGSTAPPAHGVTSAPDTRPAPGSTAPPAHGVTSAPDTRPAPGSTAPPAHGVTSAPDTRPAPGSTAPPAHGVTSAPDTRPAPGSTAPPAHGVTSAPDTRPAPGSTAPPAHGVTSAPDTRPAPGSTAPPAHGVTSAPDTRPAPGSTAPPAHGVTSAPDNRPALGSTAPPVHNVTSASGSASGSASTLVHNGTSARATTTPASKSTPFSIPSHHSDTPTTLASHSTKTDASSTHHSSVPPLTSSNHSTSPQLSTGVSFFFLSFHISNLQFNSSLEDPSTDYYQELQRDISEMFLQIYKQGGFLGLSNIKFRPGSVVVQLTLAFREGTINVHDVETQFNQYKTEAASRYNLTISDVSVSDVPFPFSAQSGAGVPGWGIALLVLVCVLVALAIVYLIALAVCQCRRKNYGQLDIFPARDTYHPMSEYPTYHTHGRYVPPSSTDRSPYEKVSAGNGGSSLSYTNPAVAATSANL
The test system of data set [2] is S75 (S75a) (DNA, aptamer) GGGAGACAAGAATAAACGCTCAACTGGTATCTATATGAAGGTTGTAGCTTCGACAGGAGGCTCACAACAGGC
The experiment in a line: fluorescence titration of dye into aptamer, sigmoidal fit. The settings on record: binding solution (composition not given); 50 nM aptamer; ex 434 nm, em 610 nm; apparent.

Data set [3] deals with S51 (S51a) (DNA, aptamer) GGGAGACAAGAATAAACGCTCAAAGATAAAAAGGCTGTCTGAAAATTTTCGACAGGAGGCTCACAACAGGC
The data set is described as above. To be noted: binding solution (composition not given); 50 nM aptamer; ex 434 nm, em 610 nm; apparent.

Data set [4] has as its system S11 (S11a) (DNA, aptamer) GGGAGACAAGAATAAACGCTCAAGGCAACATACTGTAAAGCTCAGGACTTCGACAGGAGGCTCACAACAGGC
The data set is described as above. The settings on record: binding solution (composition not given); 50 nM aptamer; ex 434 nm, em 610 nm; apparent.

Data set [5] concerns the target T1, MUC1/Y 20mer peptide (UniProt P15941-7).
T1 chain: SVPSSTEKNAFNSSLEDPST
The experiment in a line: thermal denaturation (SYBR Green I); 1:1000 aptamer:peptide; Tm 20 and 45 to 16 °C; Ru displacement: 50 nM aptamer in binding solution (composition not given), excitation 434 nm, emission 610 nm; thermal assay: binding solution, 1 h ambient then SYBR Green I, 3-100 °C; cells: PBS, 4 °C, 1 h. The settings on record: hairpin (m-fold).

Data set [6] concerns the target T2, MUC1/Y 10mer peptide (UniProt P15941-7).
T2 chain: TEKNAFNSSL
Briefly: thermal denaturation (SYBR Green I); 1:1000 aptamer:peptide; Tm 20 and 45 to 26 °C; Ru displacement: 50 nM aptamer in binding solution (composition not given), excitation 434 nm, emission 610 nm; thermal assay: binding solution, 1 h ambient then SYBR Green I, 3-100 °C; cells: PBS, 4 °C, 1 h. The settings on record: hairpin (m-fold).

Data set [7] deals with T1, MUC1/Y 20mer peptide. Briefly: Ru(phen)2dppz fluorescence displacement; 2 µM Ru dye; Kd only in Figure 2C; Ru displacement: 50 nM aptamer in binding solution (composition not given), excitation 434 nm, emission 610 nm; thermal assay: binding solution, 1 h ambient then SYBR Green I, 3-100 °C; cells: PBS, 4 °C, 1 h. To be noted: predicted hairpin (m-fold).
Data set [8] deals with T1, MUC1/Y 20mer peptide. Briefly: Ru(phen)2dppz fluorescence displacement; 1.5 µM Ru dye; Kd only in Figure 2C; Ru displacement: 50 nM aptamer in binding solution (composition not given), excitation 434 nm, emission 610 nm; thermal assay: binding solution, 1 h ambient then SYBR Green I, 3-100 °C; cells: PBS, 4 °C, 1 h. The settings on record: predicted hairpin (m-fold).
For data set [9], the target named is T2, MUC1/Y 10mer peptide. Briefly: thermal denaturation (SYBR Green I); 1:1000 aptamer:peptide; Tm 21 to 7 and 20 °C; Ru displacement: 50 nM aptamer in binding solution (composition not given), excitation 434 nm, emission 610 nm; thermal assay: binding solution, 1 h ambient then SYBR Green I, 3-100 °C; cells: PBS, 4 °C, 1 h.
Data set [10] addresses T1, MUC1/Y 20mer peptide. Briefly: thermal denaturation (SYBR Green I); 1:1000 aptamer:peptide; Tm 21 to 16 °C; Ru displacement: 50 nM aptamer in binding solution (composition not given), excitation 434 nm, emission 610 nm; thermal assay: binding solution, 1 h ambient then SYBR Green I, 3-100 °C; cells: PBS, 4 °C, 1 h.
Data set [11] addresses T1, MUC1/Y 20mer peptide. The experiment in a line: thermal denaturation (SYBR Green I); 1:1000 aptamer:peptide; Tm 35 to 30 °C; Ru displacement: 50 nM aptamer in binding solution (composition not given), excitation 434 nm, emission 610 nm; thermal assay: binding solution, 1 h ambient then SYBR Green I, 3-100 °C; cells: PBS, 4 °C, 1 h. The settings on record: predicted hairpin (m-fold).

Data set [12] deals with T2, MUC1/Y 10mer peptide. The experiment in a line: thermal denaturation (SYBR Green I); 1:1000 aptamer:peptide; Tm 35 to 43 °C; Ru displacement: 50 nM aptamer in binding solution (composition not given), excitation 434 nm, emission 610 nm; thermal assay: binding solution, 1 h ambient then SYBR Green I, 3-100 °C; cells: PBS, 4 °C, 1 h. To be noted: predicted hairpin (m-fold).

In turn, “GGCAACATACTGTAAAGCTCAGGAC [S11b (S11 variable region)]” gave a Kd with lipase of more than 250000 nM. The binding signal (fold more peptide than MUC1/Y peptide) in data set [1] is more than 100.

Consider `[Ru+2].c1ccc2nc3c4cccnc4c4ncccc4c3nc2c1.c1cnc2c(c1)ccc1cccnc12.c1cnc2c(c1)ccc1cccnc12`, for which the Kd in data set [2] stood at 240 nM; in data set [3] it was 440 nM; in [4] it was 350 nM.

On to ACTGTAAAGCTCAGGACTTCGACAGG (ssDNA) [S11c (S11 hairpin region)], for which the binding result with MUC1/Y 20mer peptide [5] and in the data set with MUC1/Y 10mer peptide [6] was “binds” each time.

B1: S75a (S75 full length) (ssDNA)
DNA: GGGAGACAAGAATAAACGCTCAACTGGTATCTATATGAAGGTTGTAGCTTCGACAGGAGGCTCACAACAGGC
Regarding B1, the binding result with MUC1/Y 20mer peptide [7] is recorded as “binds”.

B2: S51a (S51 full length) (ssDNA)
DNA: GGGAGACAAGAATAAACGCTCAAAGATAAAAAGGCTGTCTGAAAATTTTCGACAGGAGGCTCACAACAGGC
For B2, in the data set with MUC1/Y 20mer peptide [8], the binding result is given as “binds”.

Consider GGCAACATACTGTAAAGCTCAGGAC (ssDNA) [S11b (S11 variable region)], for which the binding result in the data set with MUC1/Y 10mer peptide [9] and with MUC1/Y 20mer peptide [10] was “binds” each time.

B3: S11a (S11 full length) (ssDNA)
DNA: GGGAGACAAGAATAAACGCTCAAGGCAACATACTGTAAAGCTCAGGACTTCGACAGGAGGCTCACAACAGGC
As to B3, the binding result in the data set with MUC1/Y 20mer peptide [11] and with MUC1/Y 10mer peptide [12] was “binds” throughout.

Source of the values: article PMC8400696.
